Reference: patent US20240052047A1 (Pfizer, published 2024)

Columns and labels:
Assay in all cases: cell-based or functional assay
[1] = target: T1, human IL27 receptor (IL27RA/gp130 heterodimer) on human cells (human, UniProt Q6UWB1 33-636; P40189 23-918)
[2] = target: T2, cynomolgus IL27 receptor (IL27RA/gp130 heterodimer) on cynomolgus T cells (cynomolgus monkey)
T2 chain 1: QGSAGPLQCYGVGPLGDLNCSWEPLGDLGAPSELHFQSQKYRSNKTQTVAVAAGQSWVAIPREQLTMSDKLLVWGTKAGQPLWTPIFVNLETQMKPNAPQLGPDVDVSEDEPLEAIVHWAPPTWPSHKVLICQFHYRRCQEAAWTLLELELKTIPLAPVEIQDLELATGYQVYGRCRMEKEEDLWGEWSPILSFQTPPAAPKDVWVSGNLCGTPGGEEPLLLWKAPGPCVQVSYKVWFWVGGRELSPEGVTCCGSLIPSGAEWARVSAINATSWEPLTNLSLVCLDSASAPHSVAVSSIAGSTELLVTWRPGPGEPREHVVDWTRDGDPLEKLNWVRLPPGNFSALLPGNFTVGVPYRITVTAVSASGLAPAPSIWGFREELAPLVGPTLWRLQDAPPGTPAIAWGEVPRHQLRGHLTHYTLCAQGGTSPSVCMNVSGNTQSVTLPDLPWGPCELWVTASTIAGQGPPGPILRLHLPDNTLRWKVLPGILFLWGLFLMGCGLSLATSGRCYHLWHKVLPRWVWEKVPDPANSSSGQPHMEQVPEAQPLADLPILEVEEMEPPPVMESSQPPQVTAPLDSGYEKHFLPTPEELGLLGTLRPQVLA
T2 chain 2: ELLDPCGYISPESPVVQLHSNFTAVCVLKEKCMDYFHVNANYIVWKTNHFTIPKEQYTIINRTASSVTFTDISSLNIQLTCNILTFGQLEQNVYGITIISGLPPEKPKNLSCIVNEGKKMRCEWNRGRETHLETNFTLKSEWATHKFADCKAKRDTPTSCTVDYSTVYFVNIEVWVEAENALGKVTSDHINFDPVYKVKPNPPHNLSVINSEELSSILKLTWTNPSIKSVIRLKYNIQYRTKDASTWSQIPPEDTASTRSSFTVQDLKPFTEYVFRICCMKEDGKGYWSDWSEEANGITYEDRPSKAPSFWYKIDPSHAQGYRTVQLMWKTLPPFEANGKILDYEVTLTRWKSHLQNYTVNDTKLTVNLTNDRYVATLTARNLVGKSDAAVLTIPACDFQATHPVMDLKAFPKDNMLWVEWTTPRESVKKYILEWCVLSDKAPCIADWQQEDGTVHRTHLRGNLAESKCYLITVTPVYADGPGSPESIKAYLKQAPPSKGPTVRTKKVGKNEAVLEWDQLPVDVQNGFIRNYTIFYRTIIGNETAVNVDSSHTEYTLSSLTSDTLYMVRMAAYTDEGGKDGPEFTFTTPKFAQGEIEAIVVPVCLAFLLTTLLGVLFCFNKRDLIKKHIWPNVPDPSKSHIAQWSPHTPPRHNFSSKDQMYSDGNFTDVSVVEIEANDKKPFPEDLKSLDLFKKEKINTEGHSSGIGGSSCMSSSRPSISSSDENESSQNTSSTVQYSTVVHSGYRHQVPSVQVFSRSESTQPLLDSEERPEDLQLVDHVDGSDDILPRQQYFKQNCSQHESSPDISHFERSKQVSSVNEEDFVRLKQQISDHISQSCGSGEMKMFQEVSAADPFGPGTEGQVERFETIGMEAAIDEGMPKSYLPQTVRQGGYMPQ

[3] = target: T1, human IL27 receptor (IL27RA/gp130 …); remark: listed apart in the source
[4] = target: T1, human IL27 receptor (IL27RA/gp130 …); remark: listed apart in the source

B1: mAb-4894 anti-IL27RA/gp130 bispecific antibody (bispecific antibody, human IgG1)
heavy 1: EVQLVESGGGLVQPGGSLRLSCAASGFTFEYFGLQWVRQAPGKGLEWIGYTSSGGNYEYYEETLKGRFTISRDNAKNSLYLQMNSLRAEDTAVYYCARTKTGDYWGQGTLVTVSSASTKGPSVFPLAPSSKSTSGGTAALGCLVKDYFPEPVTVSWNSGALTSGVHTFPAVLQSSGLYSLSSVVTVPSSSLGTQTYICNVNHKPSNTKVDKKVEPKSCEKTHTCPPCPAPEAAGAPSVFLFPPKPKDTLMISRTPEVTCVVVDVSHEDPEVKFNWYVDGVEVHNAKTKPREEQYNSTYRVVSVLTVLHQDWLNGKEYKCKVSNKALPAPIEKTISKAKGQPREPQVYTLPPSREEMTKNQVSLTCEVKGFYPSDIAVEWESNGQPENNYKTTPPVLDSDGSFFLYSKLTVDKSRWQQGNVFSCSVMHEALHNHYTQKSLSLSPGK
light 1: DIQMTQSPSSLSASVGDRVTITCRASQDIGNSLTWYQQKPGKAPKRVIFGATGLAAGVPSRFSGSGSGTDFTLTISSLQPEDFATYYCLQSKQYPYTFGQGTKLEIKRTVAAPSVFIFPPSDEQLKSGTASVVCLLNNFYPREAKVQWKVDNALQSGNSQESVTEQDSKDSTYSLSSTLTLSKADYEKHKVYACEVTHQGLSSPVTKSFNRGEC
heavy 2: QVQLVQSGAEVKKPGSSVKVSCKVSGGSISSYYWSWVRQAPGQGLEWIGRIYITGNTNYNPSLKDRVTMTVDTSTSTHYMELSSLRSEDTAVYYCAREGPKLGIFDYWGQGTLVTVSSASTKGPSVFPLAPSSKSTSGGTAALGCLVKDYFPEPVTVSWNSGALTSGVHTFPAVLQSSGLYSLSSVVTVPSSSLGTQTYICNVNHKPSNTKVDKKVEPKSCRKTHTCPPCPAPEAAGAPSVFLFPPKPKDTLMISRTPEVTCVVVDVSHEDPEVKFNWYVDGVEVHNAKTKPREEQYNSTYRVVSVLTVLHQDWLNGKEYKCKVSNKALPAPIEKTISKAKGQPREPQVYTLPPSREEMTKNQVSLTCLVKGFYPSDIAVEWESNGQPENNYKTTPPVLDSDGSFFLYSRLTVDKSRWQQGNVFSCSVMHEALHNHYTQKSLSLSPGK
light 2: DIQMTQSPSSLSASVGDRVTITCRASQSVSSSYLAWYQQKPGKAPKLLIYGTESRATGVPSRFSGSGSGTDFTLTISSLQPEDFATYYCQQYGGYPTFGGGTKVEIKRTVAAPSVFIFPPSDEQLKSGTASVVCLLNNFYPREAKVQWKVDNALQSGNSQESVTEQDSKDSTYSLSSTLTLSKADYEKHKVYACEVTHQGLSSPVTKSFNRGEC
notes: Human IgG1 EE/RR heterodimer with L234A, L235A, G237A (EU); also called GBT-IL27R-4894; GBT-IL-27R-4894
Monocyte IDO1 EC50 (human PBMC, CD14+ monocytes, flow cytometry) [1]: 5 pM | Monocyte PD-L1 EC50 (human whole blood, flow cytometry) [1]: 2 pM | Primary Colonocytes IDO1 activity EC50 (kynurenine by LC-MS) [1]: 5400 pM | T Cell pSTAT1 EC50 (human whole blood, CD3+ T cells, flow cytometry) [1]: 0.4 nM | T Cell pSTAT3 EC50 (human whole blood, CD3+ T cells, flow cytometry) [1]: 0.2 nM | T Cell pSTAT1 EC50 (cynomolgus whole blood, CD3+ T cells, flow cytometry) [2]: 1.74 nM | T Cell pSTAT3 EC50 (cynomolgus whole blood, CD3+ T cells, flow cytometry) [2]: 1.17 nM | Th17 Cells IL-17A IC50 (MSD immunoassay of supernatant) [3]: 5.5 pM | IDO1 in CD14+ monocytes EC50 [4]: 8 pM | PD-L1 in CD14+ monocytes EC50 (human whole blood) [4]: 2 pM | pSTAT1 in CD3+ T cells EC50 (human whole blood) [4]: 83 pM
